Experiments:
[1] = target: native rat TrkA on PC12 cells (rat, UniProt P35739 33-799); assay: cell-based or functional assay
recombinant human TrkA = target: T1, recombinant human TrkA (human, UniProt P04629 33-423, limits assumed); assay: SPR, antibody captured on protein A chip, TrkA as analyte, single concentration, 1:1 model
T1 construct: also called hTrkA
T1 sequence (P04629 33-423 limits assumed): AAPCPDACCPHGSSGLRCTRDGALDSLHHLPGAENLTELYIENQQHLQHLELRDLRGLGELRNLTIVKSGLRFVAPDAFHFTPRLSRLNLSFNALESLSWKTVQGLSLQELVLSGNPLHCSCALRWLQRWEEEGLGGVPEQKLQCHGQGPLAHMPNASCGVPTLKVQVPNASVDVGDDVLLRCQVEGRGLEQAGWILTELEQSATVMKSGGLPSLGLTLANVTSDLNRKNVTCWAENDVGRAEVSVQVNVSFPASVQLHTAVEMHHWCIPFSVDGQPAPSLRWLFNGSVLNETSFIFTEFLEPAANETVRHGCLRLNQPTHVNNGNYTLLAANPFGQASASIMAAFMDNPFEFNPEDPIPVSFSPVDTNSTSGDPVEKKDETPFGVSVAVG

mouse β-NGF, sequence (P01139 122-241 limits assumed): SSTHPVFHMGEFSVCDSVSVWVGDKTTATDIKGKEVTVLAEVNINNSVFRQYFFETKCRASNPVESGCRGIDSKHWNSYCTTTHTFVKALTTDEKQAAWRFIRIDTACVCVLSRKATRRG
native rat TrkA on PC12 cells, sequence (P35739 33-799): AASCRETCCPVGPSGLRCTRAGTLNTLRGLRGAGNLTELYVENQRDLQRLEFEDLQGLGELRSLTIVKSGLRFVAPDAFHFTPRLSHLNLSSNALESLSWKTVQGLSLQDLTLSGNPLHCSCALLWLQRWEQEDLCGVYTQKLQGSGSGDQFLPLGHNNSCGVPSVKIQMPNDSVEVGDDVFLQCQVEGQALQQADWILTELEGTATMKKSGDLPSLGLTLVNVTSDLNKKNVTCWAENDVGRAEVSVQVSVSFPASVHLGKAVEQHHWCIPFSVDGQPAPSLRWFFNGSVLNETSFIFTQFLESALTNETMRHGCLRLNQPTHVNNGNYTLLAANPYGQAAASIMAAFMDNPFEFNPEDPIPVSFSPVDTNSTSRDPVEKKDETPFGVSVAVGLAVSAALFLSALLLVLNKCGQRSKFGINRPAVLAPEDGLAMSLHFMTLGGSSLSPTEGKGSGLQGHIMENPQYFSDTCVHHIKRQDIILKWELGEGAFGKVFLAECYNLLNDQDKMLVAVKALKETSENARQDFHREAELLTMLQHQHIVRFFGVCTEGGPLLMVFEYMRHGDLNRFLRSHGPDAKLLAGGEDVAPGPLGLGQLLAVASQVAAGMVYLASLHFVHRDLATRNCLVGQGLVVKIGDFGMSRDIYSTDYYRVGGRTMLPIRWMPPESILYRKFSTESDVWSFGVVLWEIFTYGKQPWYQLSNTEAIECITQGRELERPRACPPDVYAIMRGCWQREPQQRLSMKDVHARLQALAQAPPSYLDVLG

Row | Molecule | Akt phosphorylation in PC12 cells, EC50 [1] [nM] | Erk phosphorylation in PC12 cells, EC50 [1] [nM] | TrkA receptor phosphorylation in PC12 cells (AlphaLISA p-TrkA Tyr674/675), EC50 [1] [nM] | neurite outgrowth in PC12 cells at 138 hours, EC50 [1] [nM] | Akt pathway activation (pEC50) [1] [pEC50] | Erk pathway activation (pEC50) [1] [pEC50] | Neurite outgrowth (pEC50) [1] [pEC50] | Kd (recombinant human TrkA) [nM] | koff (recombinant human TrkA) [s⁻¹] | kon (recombinant human TrkA) [M⁻¹ s⁻¹]
1 | mouse β-NGF (from UniProt P01139 122-241) (ligand) | 0.025 | 0.025 | 0.129 | 0.0078 | – | – | – | – | – | –
2 | anti-TrkA antibody Ab386 (antibody, V domains shown) VH: QVQLQESGPGLVKPSGTLSLTCAVSGGSISSSNWWTWVRQPPGKGLEWIGEIYHRGNRNYNPSLKSRVTISVDKSKNQFSLKLSSVTAADTAVYYCARAPWFDYWGQGTLV VL: SSELTQDPAVSVALGQTVRITCQGDSLRSYYASWYQQKPGQAPVLVIYGKNNRPSGIPDRFSGSSSGNTASLTITGAQAEDEADYYCNSQDSSGNHLIFGGGTKLTVLG | – | – | – | – | 9 | 9.23 | 10.1 | 1.15 | 0.000305 | 266000
3 | anti-TrkA antibody Ab49 (antibody, V domains shown) VH: EVQLQESGPGLVKPSGTLSLTCAVSGGSISSSNWWTWVRQPPGKGLEWIGEIYHRGNRNYNPSLKSRVTISVDKSKNQFSLKLSSVTAADTAVYYCARAPWFDYWGQGTLV VL: SSELTQDPAVSVALGQTVRITCQGDSLRSYYASWYQQKPGQAPVLVIYGKNNRPSGIPDRFSGSSSGNTASLTITGAQAEDEADYYCASQASSGNHLIFGGGTKLT | – | – | – | – | 9.12 | 9.29 | 10.1 | 1.78 | 0.000472 | 264000
4 | anti-TrkA antibody Ab476 (antibody, V domains shown) VH: QVQLQESGPGLVKPSGTLSLTCAVSGGSISSSNWWTWVRQPPGKGLEWIGEIYHRGNRNYNPSLKSRVTISVDKSKNQFSLKLSSVTAADTAVYYCARAPFFDRWGQGTLV VL: SSELTQDPAVSVALGQTVRITCQGDSLRSYYASWYQQKPGQAPVLVIHGKNNRPSGIPDRFSGSSSGNTASLTITGAQAEDEADYYCNSQDSSGNHLIFGGGTKLTVLG | – | – | – | – | – | – | – | 1.25 | 0.0003 | 240000
5 | anti-TrkA antibody Ab122 (antibody, V domains shown) VH: EVQLQESGPGLVKPSGTLSLTCAVSGGSISSSNWWTWVRQPPGKGLEWIGEIYHRGNRNYNPSLKSRVTISVDKSKNQFSLKLSSVTAADTAVYYCARAPWFDYWGQGTLV VL: SSELTQDPAVSVALGQTVRITCQGASLRSYYASWYQQKPGQAPVLVIYGKNKRPSGIPDRFSGSSSGNTASLTITGAQAEDEADYYCASQASSGNHLIFGGGTKLT | – | – | – | – | 9.5 | 9.88 | 9.6 | 1.45 | 0.000294 | –
6 | anti-TrkA antibody Ab96 (antibody, V domains shown) VH: EVQLQESGPGLVKPSGTLSLTCAVSGGSISSSNWWTWVRQPPGKGLEWIGEIYHRGNRNYNPSLKSRVTISVDKSKNQFSLKLSSVTAADTAVYYCARAPWFDYWGQGTLV VL: SSELTQDPAVSVALGQTVRITCQGGSLRSYYASWYQQKPGQAPVLVIYGKNKRPSGIPDRFSGSSSGNTASLTITGAQAEDEADYYCNSQASSGNHLIFGGGTKLT | – | – | – | – | 9.53 | 10.2 | 9.81 | 1.23 | 0.000277 | –
7 | anti-TrkA antibody Ab676 (antibody, V domains shown) VH: QVQLQESGPGLVKPSGTLSLTCAVSGGSVSSGNWWTWVRQPPGKGLEWIGEIYHRGNTNYNPSLKSRVTISVDKSKNQFSLKLNSVTAADTAVYFCARAPFFDYWGQGTLV VL: SSELTQDPAVSVALGQTVRITCQGDSLRSYYASWYQQKPGQAPVLVIHGKNNRPSGIPDRFSGSSSGNTASLTITGAQAEDEADYYCNSQVYGGNHLIFGGGTKLTVLG | – | – | – | – | – | – | – | 0.815 | 0.000216 | 265000
8 | anti-TrkA antibody Ab67 (antibody, V domains shown) VH: EVQLQESGPGLVKPSGTLSLTCAVSGGSISSSNWWTWVRQPPGKGLEWIGEIYHRGNRNYNPSLKSRVTISVDKSKNQFSLKLSSVTAADTAVYYCARAPWFDYWGQGTLV VL: SSELTQDPAVSVALGQTVRITCQGDALRSYYASWYQQKPGQAPVLVIYGKNNRPSGIPDRFSGSSSGNTASLTITGAQAEDEADYYCNSQASSGNHLIFGGGTKLT | – | – | – | – | 9.07 | 9.28 | 9.96 | 1.91 | 0.000477 | 250000
9 | anti-TrkA antibody Ab70 (antibody, V domains shown) VH: EVQLQESGPGLVKPSGTLSLTCAVSGGSISSSNWWTWVRQPPGKGLEWIGEIYHRGNRNYNPSLKSRVTISVDKSKNQFSLKLSSVTAADTAVYYCARAPWFDYWGQGTLV VL: SSELTQDPAVSVALGQTVRITCQGDALRSYYASWYQQKPGQAPVLVIYGKNNRPSGIPDRFSGSSSGNTASLTITGAQAEDEADYYCASQASSGNHLIFGGGTKLT | – | – | – | – | 9.05 | 9.21 | 10 | 1.63 | 0.000432 | 265000
10 | anti-TrkA antibody Ab79 (antibody, V domains shown) VH: EVQLQESGPGLVKPSGTLSLTCAVSGGSISSSNWWTWVRQPPGKGLEWIGEIYHRGNRNYNPSLKSRVTISVDKSKNQFSLKLSSVTAADTAVYYCARAPWFDYWGQGTLV VL: SSELTQDPAVSVALGQTVRITCQGDALRSYYASWYQQKPGQAPVLVIYGKGNRPSGIPDRFSGSSSGNTASLTITGAQAEDEADYYCNSQASSGNHLIFGGGTKLT | – | – | – | – | 8.97 | 9.21 | 10.2 | 1.67 | 0.000421 | 252000
11 | anti-TrkA antibody Ab119 (antibody, V domains shown) VH: EVQLQESGPGLVKPSGTLSLTCAVSGGSISSSNWWTWVRQPPGKGLEWIGEIYHRGNRNYNPSLKSRVTISVDKSKNQFSLKLSSVTAADTAVYYCARAPWFDYWGQGTLV VL: SSELTQDPAVSVALGQTVRITCQGASLRSYYASWYQQKPGQAPVLVIYGKNKRPSGIPDRFSGSSSGNTASLTITGAQAEDEADYYCNSQASSGNHLIFGGGTKLT | – | – | – | – | 9.25 | 10.2 | 10.2 | 1.11 | 0.000265 | –

Results, then the molecule that gave them:

Row | Akt phosphorylation in PC12 cells, EC50 [1] [nM] | Erk phosphorylation in PC12 cells, EC50 [1] [nM] | TrkA receptor phosphorylation in PC12 cells (AlphaLISA p-TrkA Tyr674/675), EC50 [1] [nM] | neurite outgrowth in PC12 cells at 138 hours, EC50 [1] [nM] | Akt pathway activation (pEC50) [1] [pEC50] | Erk pathway activation (pEC50) [1] [pEC50] | Neurite outgrowth (pEC50) [1] [pEC50] | Kd (recombinant human TrkA) [nM] | koff (recombinant human TrkA) [s⁻¹] | kon (recombinant human TrkA) [M⁻¹ s⁻¹] | Molecule
12 | – | – | – | – | 9.03 | 9.23 | 10.1 | 1.21 | 0.000327 | 271000 | anti-TrkA antibody Ab124 (antibody, V domains shown) VH: EVQLQESGPGLVKPSGTLSLTCAVSGGSISSSNWWTWVRQPPGKGLEWIGEIYHRGNRNYNPSLKSRVTISVDKSKNQFSLKLSSVTAADTAVYYCARAPWFDYWGQGTLV VL: SSELTQDPAVSVALGQTVRITCQGASLRSYYASWYQQKPGQAPVLVIYGKGNRPSGIPDRFSGSSSGNTASLTITGAQAEDEADYYCNSQDSSGNHLIFGGGTKLT
13 | – | – | – | – | – | – | – | 1.3 | 0.000258 | 199000 | anti-TrkA antibody Ab523 (antibody, V domains shown) VH: QVQLQESGPGLVKPSGTLSLTCAVSGGSVSSGNWWTWVRQPPGKGLEWIGEIYHRGNRNYNPSLKSRVTISVDKSKNQFSLKLNSVTAADTAVYFCARAPFFDYWGQGTLV VL: SSELTQDPAVSVALGQTVRITCQGDSLRSYYASWYQQKPGQAPVLVIYGKNNRPSGIPDRFSGSSSWNTASLTITGAQAEDEADYYCNSQDSSGNHLIFGGGTKLTVLG
14 | – | – | – | – | 8.67 | 8.86 | 9.79 | 2.1 | 0.000614 | 293000 | anti-TrkA antibody Ab3 (antibody, V domains shown) VH: QVQLQESGPGLVKPSGTLSLTCAVSGGSVSSGNWWTWVRQPPGKGLEWIGEIYHRGNTNYNPSLKSRVTISVDKSKNQFSLKLNSVTAADTAVYFCARAPFFDYWGQGTLV VL: SSELTQDPAVSVALGQTVRITCQGDSLRSYYASWYQQKPGQAPVLVIFGKNNRPSGIPDRFSGSSSGNTASLTITGAQAEDEADYYCNSQVSGGNHLIFGGGTKLTVLG
15 | – | – | – | – | – | – | – | 0.875 | 0.000244 | 279000 | anti-TrkA antibody Ab449 (antibody, V domains shown) VH: QVQLQESGPGLVKPSGTLSLTCAVSGGSISSSNWWTWVRQPPGKGLEWIGEIYHRGNRNYNPSLKSRVTISVDKSKNQFSLKLSSVTAADTAVYYCARAPWFDRWGQGTLV VL: SSELTQDPAVSVALGQTVRITCQGDSLRSYYASWYQQKPGQAPVLVIYGKNNRPSGIPDRFSGSSSGNTASLTITGAQAEDEADYYCNSQDSSGNHLIFGGGTKLTVLG
16 | – | – | – | – | 9.09 | 9.14 | 9.99 | 1.75 | 0.000443 | 253000 | anti-TrkA antibody Ab82 (as in Tables 4 and 6) (antibody, V domains shown) VH: QVQLQESGPGLVKPSGTLSLTCAVSGGSISSSNWWTWVRQPPGKGLEWIGEIYHRGNRNYNPSLKSRVTISVDKSKNQFSLKLSSVTAADTAVYYCARAPWFDYWGQGTLV VL: SSELTQDPAVSVALGQTVRITCQGDALRSYYASWYQQKPGQAPVLVIYGKGNRPSGIPDRFSGSSSGNTASLTITGAQAEDEADYYCASQASSGNHLIFGGGTKLT
17 | – | – | – | – | 9.57 | 9.78 | 9.95 | 0.943 | 0.000211 | – | anti-TrkA antibody Ab76 (antibody, V domains shown) VH: EVQLQESGPGLVKPSGTLSLTCAVSGGSISSSNWWTWVRQPPGKGLEWIGEIYHRGNRNYNPSLKSRVTISVDKSKNQFSLKLSSVTAADTAVYYCARAPWFDYWGQGTLV VL: SSELTQDPAVSVALGQTVRITCQGDALRSYYASWYQQKPGQAPVLVIYGKNKRPSGIPDRFSGSSSGNTASLTITGAQAEDEADYYCASQASSGNHLIFGGGTKLT
18 | – | – | – | – | 9.2 | 9.45 | 10 | 1.29 | 0.000352 | 273000 | anti-TrkA antibody Ab101 (antibody, V domains shown) VH: EVQLQESGPGLVKPSGTLSLTCAVSGGSISSSNWWTWVRQPPGKGLEWIGEIYHRGNRNYNPSLKSRVTISVDKSKNQFSLKLSSVTAADTAVYYCARAPWFDYWGQGTLV VL: SSELTQDPAVSVALGQTVRITCQGGSLRSYYASWYQQKPGQAPVLVIYGKGNRPSGIPDRFSGSSSGNTASLTITGAQAEDEADYYCNSQDSSGNHLIFGGGTKLT
